Test results as given in patent publication US20180169261A1 (Seagen, published 2018).
Values belong to the binder of their own block, whether it stands above or below them.

What was measured:
human CD123 [1] = target: T1, human CD123 (human, UniProt P26951 19-378); assay: cell-based or functional assay
human CD123 [2] = target: T1, human CD123; assay: cell-based or functional assay; remark: listed apart in the source
human CD123 [3] = target: T1, human CD123; assay: cell-based or functional assay; remark: listed apart in the source
cynomolgus CD123 = target: T2, cynomolgus CD123 (cynomolgus); assay: saturation binding of AlexaFluor-488 labeled mAb, flow cytometry on HEK293F cells expressing cyno CD123; apparent Kd
T2 construct: whole, on cells; Expressed on transfected HEK-293F cells; also called cyno CD123
Experimental: (§1) One hundred thousand CD123-positive cells (HEK-293F cells transfected to express human or cynomologus CD123) were transferred to 96-well plates. […] Cells were pelleted by centrifugation, washed 3 times with a PBS+1% BSA solution, and resuspended in 125 μL of PBS+1% BSA. Fluorescence was analyzed using a flow cytometer, and the percent of saturated fluorescent signal was used to determine percent bound and to subsequently calculate apparent Kd.

human CD123 [4] = target: T1, human CD123; assay: competition with 5 nM AlexaFluor-488 m7G3, flow cytometry on Molm-13 AML cells
Experimental: Cells were centrifuged, washed 3 times with PBS, and resuspended in 125 μL of a PBS+1% BSA solution. Fluorescence was analyzed using a flow cytometer, and the percent of saturated fluorescent signal was used to determine percent labeled 7G3 mAb bound. The EC50 was extrapolated by fitting the data to a sigmoidal dose-response curve with variable slope.

human CD123 [5] = target: T1, human CD123; assay: saturation binding of AlexaFluor-488 labeled mAb, flow cytometry on HEK293F cells expressing human CD123; apparent Kd
Experimental: as §1

T1 sequence (P26951 19-378): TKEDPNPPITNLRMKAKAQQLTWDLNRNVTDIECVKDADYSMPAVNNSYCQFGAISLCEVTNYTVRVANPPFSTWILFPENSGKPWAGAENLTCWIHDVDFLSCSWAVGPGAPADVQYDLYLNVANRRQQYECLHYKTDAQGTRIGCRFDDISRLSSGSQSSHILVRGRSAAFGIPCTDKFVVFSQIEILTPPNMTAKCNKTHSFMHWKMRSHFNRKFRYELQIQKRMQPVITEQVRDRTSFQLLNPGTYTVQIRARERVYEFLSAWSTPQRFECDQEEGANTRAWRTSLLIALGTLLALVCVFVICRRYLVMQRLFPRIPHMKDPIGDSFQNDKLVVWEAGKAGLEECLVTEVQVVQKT

- Kd (cynomolgus CD123): 4.6 nM
- EC50 (human CD123 [4]): 4.3 nM
- Kd (human CD123 [5]): 2.7 nM
B2: murine 7G3 antibody (antibody, V domains shown)
VH: EVQLQQSGPELVKPGASVKMSCKASGYTFTDYYMKWVKQSHGKSLEWIGDIIPSNGATFYNQKFKGKATLTVDRSSSTAYMHLNSLTSEDSAVYYCTRSHLLRASWFAYWGQGTLVTVSA
VL: DFVMTQSPSSLTVTAGEKVTMSCKSSQSLLNSGNQKNYLTWYLQKPGQPPKLLIYWASTRESGVPDRFTGSGSGTDFTLTISSVQAEDLAVYYCQNDYSYPYTFGGGTKLEIKR
notes: Murine monoclonal antibody; also called m7G3

- Kd (cynomolgus CD123): 5.3 nM
- Kd (human CD123 [5]): 2.7 nM
B4: h7G3, G1 (antibody, V domains shown)
VH: QVQLVQSGAEVKKPGASVKMSCKASGYTFTDYYMKWVKQAPGQGLEWIGDIIPSNGATFYNQKFKGKATLTVDRSISTAYMHLNRLRSDDTAVYYCTRSHLLRASWFAYWGQGTLVTVSS
VL: DFVMTQSPDSLAVSLGERATINCKSSQSLLNSGNQKNYLTWYLQKPGQPPKLLIYWASTRESGVPDRFSGSGSGTDFTLTISSLQAEDVAVYYCQNDYSYPYTFGQGTKLEIKR
notes: also called humanized 7G3, IgG1

- Kd (cynomolgus CD123): 6.6 nM
- Kd (human CD123 [5]): 2.7 nM
B5: h7G3EC (antibody, human IgG1, kappa, V domains shown)
VH: B4 VH
VL: B4 VL
notes: EC means cysteine at position 239 (EU index) of the IgG1 heavy chain; Unconjugated antibody; also called humanized 7G3 with S239C

More lines, now with the values behind:

B1: h7G3EC-SGD-1910 (antibody, human IgG1, kappa, V domains shown)
VH: B4 VH
VL: B4 VL
modifications: SGD-1910 PBD drug-linker on the thiol of Cys 239 (EU index); average drug load about 2 per antibody
- mean IC50, in vitro cytotoxicity, responsive CD123-positive AML cell lines (human CD123 [1]): 7 ng/mL
- mean IC50, in vitro cytotoxicity, responsive primary AML samples (human CD123 [1]): 1 ng/mL
- IC50, in vitro cytotoxicity (Annexin V/PI flow cytometry), primary AML sample FH016 (human CD123 [2]): 1.4 ng/mL
- IC50, in vitro cytotoxicity (Annexin V/PI flow cytometry), primary AML sample FH018 (human CD123 [2]): 0.12 ng/mL
- IC50, in vitro cytotoxicity (Annexin V/PI flow cytometry), primary AML sample FH019 (human CD123 [2]): > 2.5 ng/mL
- IC50, in vitro cytotoxicity (Annexin V/PI flow cytometry), primary AML sample FH020 (human CD123 [2]): 2.5 ng/mL
- IC50, in vitro cytotoxicity (Annexin V/PI flow cytometry), primary AML sample FH021 (human CD123 [2]): 1.6 ng/mL
- IC50, in vitro cytotoxicity (Annexin V/PI flow cytometry), primary AML sample FH022 (human CD123 [2]): 0.56 ng/mL
- IC50, in vitro cytotoxicity (Annexin V/PI flow cytometry), primary AML sample FH023 (human CD123 [2]): 0.06 ng/mL
- IC50, in vitro cytotoxicity (Annexin V/PI flow cytometry), primary AML sample FH024 (human CD123 [2]): 2 ng/mL
- IC50, in vitro cytotoxicity (Annexin V/PI flow cytometry), primary AML sample FH025 (human CD123 [2]): 6.5 ng/mL
- IC50, in vitro cytotoxicity (Annexin V/PI flow cytometry), primary AML sample FH026 (human CD123 [2]): 0.22 ng/mL
- IC50, in vitro cytotoxicity (Annexin V/PI flow cytometry), primary AML sample FH027 (human CD123 [2]): > 2.5 ng/mL
- IC50, in vitro cytotoxicity (Annexin V/PI flow cytometry), primary AML sample FH028 (human CD123 [2]): 2 ng/mL
- IC50, in vitro cytotoxicity (Annexin V/PI flow cytometry), primary AML sample FH029 (human CD123 [2]): 0.46 ng/mL
- IC50, in vitro cytotoxicity (Annexin V/PI flow cytometry), primary AML sample FH034 (human CD123 [2]): 0.22 ng/mL
- IC50, in vitro cytotoxicity (Annexin V/PI flow cytometry), primary AML sample FH036 (human CD123 [2]): 0.16 ng/mL
- IC50, in vitro cytotoxicity (Annexin V/PI flow cytometry), primary AML sample FH037 (human CD123 [2]): 0.68 ng/mL
- IC50, in vitro cytotoxicity (Annexin V/PI flow cytometry), primary AML sample FH038 (human CD123 [2]): 0.18 ng/mL
- IC50, in vitro cytotoxicity (CelltiterGlo, 96 h), GDM-1 AML cells (human CD123 [3]): 3.5 ng/mL
- IC50, in vitro cytotoxicity (CelltiterGlo, 96 h), HNT-34 AML cells (human CD123 [3]): 0.35 ng/mL
- IC50, in vitro cytotoxicity (CelltiterGlo, 96 h), KG1-INV AML cells (human CD123 [3]): 0.6 ng/mL
- IC50, in vitro cytotoxicity (CelltiterGlo, 96 h), KG-1 AML cells (human CD123 [3]): 0.8 ng/mL
- IC50, in vitro cytotoxicity (CelltiterGlo, 96 h), Kasumi-1 AML cells (human CD123 [3]): 1 ng/mL
- IC50, in vitro cytotoxicity (CelltiterGlo, 96 h), MV4-11 AML cells (human CD123 [3]): 0.02 ng/mL
- IC50, in vitro cytotoxicity (CelltiterGlo, 96 h), Molm-13 AML cells (human CD123 [3]): 0.08 ng/mL
- IC50, in vitro cytotoxicity (CelltiterGlo, 96 h), NOMO-1 AML cells (human CD123 [3]): 38 ng/mL
- IC50, in vitro cytotoxicity (CelltiterGlo, 96 h), SKM-1 AML cells (human CD123 [3]): 2.5 ng/mL
- IC50, in vitro cytotoxicity (CelltiterGlo, 96 h), TF1a AML cells (human CD123 [3]): > 1000 ng/mL
- IC50, in vitro cytotoxicity (CelltiterGlo, 96 h), THP-1 AML cells (human CD123 [3]): 24 ng/mL

B3: Chimeric 7G3 (antibody, V domains shown)
VH: B2 VH
VL: B2 VL
- Kd (cynomolgus CD123): 4.7 nM
- EC50 (human CD123 [4]): 2 nM
- Kd (human CD123 [5]): 2.7 nM

B6: HCLA (antibody, V domains shown)
VH: B4 VH
VL: B4 VL
notes: also called lead humanized 7G3 antibody; vHC/vLA
- EC50 (human CD123 [4]): 2.6 nM
